Assay results taken from PMC4259358, “Functional Characterization of Nuclear Localization and Export Signals in Hepatitis C Virus Proteins and Their Role in the Membranous Web” (PLoS ONE, 2014).

Columns and labels:
[1] = biological target: Core NLS 4 synthetic peptide (fused to penetratin) (hepatitis C virus | not stated); test: ELISA; plates coated with synthetic peptide (10 µg/ml, carbonate buffer pH 9.6); increasing concentrations of recombinant NTF, 2 h, room temperature; anti-HIS detection; apparent Kd; settings: remark: other sources report otherwise
[2] = biological target: NS3 NLS 1 synthetic peptide (fused to penetratin) (hepatitis C virus | not stated); test: as above; settings: remark: other sources report otherwise
[3] = biological target: NS3 NLS 2 synthetic peptide (fused to penetratin) (hepatitis C virus | not stated); test: as above; settings: remark: other sources report otherwise
[4] = biological target: NS5A NLS synthetic peptide (fused to penetratin) (hepatitis C virus | not stated); test: as above; settings: remark: other sources report otherwise
[5] = biological target: T1, IPO5 (Homo sapiens), O00410; settings: modification not given
T1 chain: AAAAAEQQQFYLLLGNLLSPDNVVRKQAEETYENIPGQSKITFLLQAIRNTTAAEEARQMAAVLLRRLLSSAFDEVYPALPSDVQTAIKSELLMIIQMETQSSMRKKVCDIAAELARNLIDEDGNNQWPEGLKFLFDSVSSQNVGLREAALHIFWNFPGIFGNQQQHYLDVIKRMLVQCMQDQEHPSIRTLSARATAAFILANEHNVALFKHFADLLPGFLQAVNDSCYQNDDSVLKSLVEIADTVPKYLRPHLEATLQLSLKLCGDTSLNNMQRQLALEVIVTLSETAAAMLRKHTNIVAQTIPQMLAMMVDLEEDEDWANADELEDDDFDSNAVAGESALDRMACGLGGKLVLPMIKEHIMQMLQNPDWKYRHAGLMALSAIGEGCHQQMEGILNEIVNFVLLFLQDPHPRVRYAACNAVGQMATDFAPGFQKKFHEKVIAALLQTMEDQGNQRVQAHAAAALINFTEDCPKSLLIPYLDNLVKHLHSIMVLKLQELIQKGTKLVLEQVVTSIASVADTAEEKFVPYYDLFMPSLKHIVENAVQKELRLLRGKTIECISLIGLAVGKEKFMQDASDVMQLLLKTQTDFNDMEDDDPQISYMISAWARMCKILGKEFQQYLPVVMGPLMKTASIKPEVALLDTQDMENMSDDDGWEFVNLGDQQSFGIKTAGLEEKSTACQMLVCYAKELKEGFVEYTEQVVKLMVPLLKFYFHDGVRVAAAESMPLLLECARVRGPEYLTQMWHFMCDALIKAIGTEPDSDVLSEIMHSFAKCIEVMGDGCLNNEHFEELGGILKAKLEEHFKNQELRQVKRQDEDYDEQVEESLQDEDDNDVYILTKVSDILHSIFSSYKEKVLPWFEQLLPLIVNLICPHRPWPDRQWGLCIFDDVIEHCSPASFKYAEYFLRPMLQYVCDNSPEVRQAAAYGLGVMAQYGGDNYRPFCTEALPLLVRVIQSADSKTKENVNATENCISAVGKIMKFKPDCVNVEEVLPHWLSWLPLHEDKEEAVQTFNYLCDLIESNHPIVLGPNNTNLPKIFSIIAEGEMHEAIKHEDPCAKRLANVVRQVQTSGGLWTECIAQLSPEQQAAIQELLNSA

B1: recombinant IPO5 (importin β3/kap β3), O00410-1 1-1097 (natural protein)
chain: MAAAAAEQQQFYLLLGNLLSPDNVVRKQAEETYENIPGQSKITFLLQAIRNTTAAEEARQMAAVLLRRLLSSAFDEVYPALPSDVQTAIKSELLMIIQMETQSSMRKKVCDIAAELARNLIDEDGNNQWPEGLKFLFDSVSSQNVGLREAALHIFWNFPGIFGNQQQHYLDVIKRMLVQCMQDQEHPSIRTLSARATAAFILANEHNVALFKHFADLLPGFLQAVNDSCYQNDDSVLKSLVEIADTVPKYLRPHLEATLQLSLKLCGDTSLNNMQRQLALEVIVTLSETAAAMLRKHTNIVAQTIPQMLAMMVDLEEDEDWANADELEDDDFDSNAVAGESALDRMACGLGGKLVLPMIKEHIMQMLQNPDWKYRHAGLMALSAIGEGCHQQMEGILNEIVNFVLLFLQDPHPRVRYAACNAVGQMATDFAPGFQKKFHEKVIAALLQTMEDQGNQRVQAHAAAALINFTEDCPKSLLIPYLDNLVKHLHSIMVLKLQELIQKGTKLVLEQVVTSIASVADTAEEKFVPYYDLFMPSLKHIVENAVQKELRLLRGKTIECISLIGLAVGKEKFMQDASDVMQLLLKTQTDFNDMEDDDPQISYMISAWARMCKILGKEFQQYLPVVMGPLMKTASIKPEVALLDTQDMENMSDDDGWEFVNLGDQQSFGIKTAGLEEKSTACQMLVCYAKELKEGFVEYTEQVVKLMVPLLKFYFHDGVRVAAAESMPLLLECARVRGPEYLTQMWHFMCDALIKAIGTEPDSDVLSEIMHSFAKCIEVMGDGCLNNEHFEELGGILKAKLEEHFKNQELRQVKRQDEDYDEQVEESLQDEDDNDVYILTKVSDILHSIFSSYKEKVLPWFEQLLPLIVNLICPHRPWPDRQWGLCIFDDVIEHCSPASFKYAEYFLRPMLQYVCDNSPEVRQAAAYGLGVMAQYGGDNYRPFCTEALPLLVRVIQSADSKTKENVNATENCISAVGKIMKFKPDCVNVEEVLPHWLSWLPLHEDKEEAVQTFNYLCDLIESNHPIVLGPNNTNLPKIFSIIAEGEMHEAIKHEDPCAKRLANVVRQVQTSGGLWTECIAQLSPEQQAAIQELLNSA
For B1, the Kd [1] was 105 nM, the Kd [2] was 33.8 nM and the Kd [3] was 35.8 nM. The Kd [4] was 32.3 nM.

B2: HIV-1 Rev NLS peptide NLS peptide, P04325 (peptide)
chain: TRQARRNRRRRWRERQR
Binder B2 has a Kd [5] of 44 nM.
